From patent US20180265551A1 (GlaxoSmithKline, published 2018)

Biological target: the molecule itself
Assay: size exclusion chromatography and negative stain EM (self-association of trimers)

B1: gB-698 (CMV gB ectodomain residues 1-698 with fusion loop, furin site and C246S mutations, C-terminal 6-His tag) (other)
chain: VSSSSTRGTSATHSHHSSHTTSAAHSRSGSVSQRVTSSQTVSHGVNETIYNTTLKYGDVVGVNTTKYPYRVCSMAQGTDLIRFERNIVCTSMKPINEDLDEGIMVVYKRNIVAHTFKVRVYQKVLTFRRSYAYHRTTYLLGSNTEYVAPPMWEIHHINSHSQCYSSYSRVIAGTVFVAYHRDSYENKTMQLMPDDYSNTHSTRYVTVKDQWHSRGSTRLYRETSNLNCMVTITTARSKYPYHFFATSTGDVVDISPFYNGTNRNASYFGENADKFFIFPNYTIVSDFGRPNSALETHRLVAFLERADSVISWDIQDEKNVTCQLTFWEASERTIRSEAEDSYHFSSAKMTATFLSKKQEVNMSDSALDCVRDEAINKLQQIFNTSYNQTYEKYGNVSVFETTGGLVVFWQGIKQKSLVELERLANRSSLNLTHNSTKSSTDGNNATHLSNMESVHNLVYAQLQFTYDTLRGYINRALAQIAEAWCVDQRRTLEVFKELSKINPSAILSAIYNKPIAARFMGDVLGLASCVTINQTSVKVLRDMNVKESPGRCYSRPVVIFNFANSSYVQYGQLGEDNEILLGNHRTEECQLPSLKIFIAGNSAYEYVDYLFKRMIDLSSISTVDSMIALDIDPLENTDFRVLELYSQKELRSSNVFDLEEIMREFNSYKQRVKYVEHHHHHH
notes: Expressed in 293GnTI- cells; The trimer pairs into a dimeric trimer of six subunits
B1: binds.
